According to publication PMC5641094, “A peptide antagonist of Prep1-p160 interaction improves ceramide-induced insulin resistance in skeletal muscle cells” (Oncotarget, 2017):

What was measured:
L6 cells [1] = experiment: Cell toxicity in L6 cells; assay type: cell-based, rat; conditions: 10μM peptide in the presence of liposomes, data not shown
L6 cells [2] = experiment: FACS analysis of peptide uptake in L6 cells; assay type: cell-based, rat; conditions: FITC-conjugated peptide, increasing concentrations, in the presence of liposomes, harvested 48h later, FACS FL-1, four experiments
Protocol: Figure 3 Design and in vitro effects of Prep1(54-72) peptide on Prep1/p160 association (A) Binding curves of Prep1(59-72) and Prep1(54-72) peptides to p160_20-160 by ELISA-like assays. Biotinylated peptides at several concentrations were added in triplicate to a 96-well plate coated with p160_20-160 (0.1μM). Experiments were performed at least twice and the average results fitted using GraphPad Prism. […] (B) Competition binding experiments. His6-tagged-p160_20-160 at 0.25μM was incubated with Prep1(59-72) and Prep1(54-72) at concentrations ranging between 0.001÷10μM and added to a 96-well plate coated with Prep1_45-155 (0.10μM). Results are the average of three independent experiments. (C) L6 cells were incubated with increasing concentrations of the fluorescein-conjugated peptide (FITC-Prep1(54-72)) and peptide uptake was detected by FACS analysis of fluorescein-labeled cells. […] Protein lysates were immunoprecipitated with Prep1 antibodies and analyzed by Western blot using antibodies for p160 or for Prep1. […] The blots were detected by ECL and autoradiography. […]
L6 cells were incubated with negative control (NC) and Prep1(54-72) peptides conjugated with fluorescein isothiocianate (FITC) at different concentrations and harvested 48h later. […] The samples were acquired by a BD LSRFortessa (BD Bioscience, San Jose, CA) and analyzed using BD FACS Diva Software.

His6-tagged p160(20-160) = target: T1, His6-tagged p160(20-160) (UniProt Q7TPV4 20-160); experiment: ELISA; competition ELISA: plate coated with Prep1(45-155) (0.1 uM); His6-tagged p160(20-160) at 0.25 uM pre-incubated with peptides at 0.001-10 uM; detection with anti-His HRP-conjugated antibody; conditions: both partners purified
T1 construct: also called His6-p160(20-160); p160(20-160) domain
T1 sequence (looked up): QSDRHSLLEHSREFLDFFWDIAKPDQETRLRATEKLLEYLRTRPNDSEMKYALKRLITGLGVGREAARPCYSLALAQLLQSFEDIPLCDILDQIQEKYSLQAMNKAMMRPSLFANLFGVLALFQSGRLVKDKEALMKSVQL

[3] = target: Prep1 (Pbx regulating protein 1), endogenous in L6 cells (rat (endogenous in L6))

FITC-Prep1(54-72): fluorescein-conjugated Prep1(54-72) peptide
cell toxicity (L6 cells [1]): without inducing any apparent cell toxicity | peptide uptake into cells (L6 cells [2]): dose-dependent manner

B1: Prep1(54-72) peptide (peptide)
peptide: Ac-KQAIYRHPLFPLLALLFEK-NH2
notes: Prep1 (Pbx regulating protein 1), stretch of the HR1 domain, named residues 54-72; Brought into L6 cells in the presence of liposomes for the cell experiments; source: synthetic peptide (Fmoc solid phase, RP-HPLC purified)
IC50 (His6-tagged p160(20-160)): 200 nM

B2: p160 myb binding protein, endogenous in L6 cells (natural protein)
chain: MAEMKSPTKAEPASPAEAPQGDRRSLLEHSREFLDFFWDIAKPDQETRLRATEKLLEYLRTRPSDSEMKYALKRLITGLGVGREAARPCYSLALAQLLQSFEDIQLCDILGQIQEKYNLQAMNKAMMRPTLFANLFGVLALFQSGRLVKDKEALMKCVRLLKILSHHYNHLQGQPVKALVDILSEVPESMFQEILPKVLKGDMKVILSSPKYLELFLLARQRVPAELESLVGSVDLFSEDNIPSLVNILKVAANSVKKEQKLPDVALNLLRLALQENKFERFWKEVLEEGLLKKPSYTSSYMCFRLLGASLPLLSDEQLQLVMRGDLIRHFGEHMVVSKSQNPLRFIPEISAYVGTFLEGCQDDPKRQFTVMVAFTAITNQGLPVMPTFWRVTRFLNTEALQNYVTWLRDMFLQPDLDSLVDFSTANQKRVQVASLNVPERTVFRLRKWIIHRLVSLVDHLHLEKDEAVVEQIARFCLFHAFFKTKKATPQIPETKQHFSFPLEDGNRGVIVSAFFSLLQTLSVKFRQTPDLAENGKPWTYRLVQLADMLLKHNRNVANVTPLTAQQRQAWDQMMSTLKELEAQSSETRAIAFQHLLLLVGLHLFKSPAESCDVLGDIQTCIKKSMEQNLRRSRSRAKASQEPVWVEVMVEILLSLLAQPSNLMRQVVRSVFGHVCSHLTPRGLQLILAVLNPETNEDEEDNVVVTDTDEKQLKHGEDADSDSEDSKNSESDVDSEDGEESEEEDRDKDVDPGFRQQLMEVLQAGNALGGEEEEEEELGDEAMMALDQNLASLFAEQKMRIQARHEEKNKLQKEKQLRRDFQIRALDLIEVLVTKQPEHPLILELLEPLLNIIQRSMRSRGSTKQEQDLLHKTARIFMHHLCRARHYCHEVEPGAEALHAQVERLVQQAGNQADASVALYYFNASLYLLRVLKGNTTKRYQDGQKLEGADIKSEPKDSEVQTTSCLDLDFVTRVYSASLESLLTKRNSPLTIPMFLDLFSRYPVICKNLLPIVVQHVAGSSRPRHQAQACLLLQKALSARELRVCFEDPEWEQLISQVLGKTTQTLQTLGEAQSKGEHQRELSILELLNTVFRIVNHEKLSVDLTAFLGMLQGKQQKLQQNLQQGNHSSGSSRLYDLYWQAMNLLGVQRPKSEKKNVKDIPSDSQSPISTKRKKKGFLPETKKRKKLKSEGTTSEKKAASQQDAVTEGAMPAATGKDQPPSTGKKRRKRVKANTPSQVNGVTVAKSPAPNNPTLSPSTPPAKTPKVQKKKEKLSQVNGSTPVSPVEPESKKHQKALSTKEVKRRSSQSALPKKRARLSLVSRSPSLLQSGIRKRRVARRRVQTP
decrease in p160 protein level in C2cer-treated L6 cells incubated with Prep1(54-72), Western blot [3]: 25%
